Reference: the Immune Epitope Database (IEDB)

Tests used:
HLA-A*30:01 = assay: IEDB peptide-MHC binding, purified MHC/competitive/radioactivity; filed as Kd, often an IC50 or EC50 that approximates it; ≥ and ≤ were set here for values at or beyond the usual limits of such assays
HLA-A*02:01 [1] = assay: IEDB peptide-MHC binding, purified MHC/competitive/fluorescence; ≥ and ≤ were set here for values at or beyond the usual limits of such assays
HLA-A*03:01 [2] = assay: IEDB peptide-MHC binding, purified MHC/competitive/radioactivity; filed as Kd, often an IC50 or EC50 that approximates it; ≥ and ≤ were set here for values at or beyond the usual limits of such assays; conditions: source organism: Vaccinia virus WR
HLA-A*11:01 [3] = assay: as above
HLA-A*33:01 = assay: as above; conditions: source organism: Vaccinia virus WR
HLA-A*68:01 = assay: as above; conditions: source organism: Vaccinia virus WR
HLA-A*31:01 = assay: as above; conditions: source organism: Vaccinia virus WR
HLA-A*01:01 [4] = assay: as above
HLA-B*08:01 = assay: as above
HLA-A*02:03 = assay: as above
HLA-A*69:01 = assay: IEDB peptide-MHC binding, purified MHC/direct/fluorescence; filed as Kd, often an IC50 or EC50 that approximates it; ≥ and ≤ were set here for values at or beyond the usual limits of such assays; conditions: source organism: Camelpox virus M-96
HLA-A*02:01 [5] = assay: as above; conditions: source organism: Camelpox virus M-96
HLA-A*23:01 = assay: IEDB peptide-MHC binding, purified MHC/competitive/radioactivity; filed as Kd, often an IC50 or EC50 that approximates it; ≥ and ≤ were set here for values at or beyond the usual limits of such assays
HLA-A*01:01 [6] = assay: IEDB peptide-MHC binding, purified MHC/direct/fluorescence; filed as Kd, often an IC50 or EC50 that approximates it; ≥ and ≤ were set here for values at or beyond the usual limits of such assays; conditions: source organism: Human immunodeficiency virus 1
HLA-A*03:01 [7] = assay: as above; conditions: source organism: Influenza A virus (A/tiger/Thailand/CU-T4/04(H5N1))
HLA-A*11:01 [8] = assay: as above; conditions: source organism: Influenza A virus (A/tiger/Thailand/CU-T4/04(H5N1))
HLA-A*24:02 = assay: IEDB peptide-MHC binding, purified MHC/competitive/radioactivity; filed as Kd, often an IC50 or EC50 that approximates it; ≥ and ≤ were set here for values at or beyond the usual limits of such assays; conditions: source organism: Dengue virus 4 Philippines/H241/1956
[9] = source organism: Vaccinia virus WR
[10] = source organism: Dengue virus 1 Brazil/97-11/1997
[11] = source organism: Zaire ebolavirus
[12] = source organism: Dengue virus 4 Philippines/H241/1956
[13] = source organism: Dengue virus 2 Jamaica/1409/1983
[14] = source organism: Dengue virus 3 Martinique/1243/1999

## KALSKLISK
HLA-A*30:01; [9]
  Kd: 70 nM

## KIRPTRSVY
HLA-A*30:01; [9]
  Kd: 7.24 nM

## KLRPRWLDA
HLA-A*30:01; [10]
  Kd: 22.5 nM

## KNISGQSPA
HLA-A*02:01 [1]; [11]
  IC50: ≥ 228000 nM

## KRTSFFLWV
HLA-A*02:01 [1]; [11]
  IC50: ≥ 79600 nM

## KTHTLWSNG
HLA-A*30:01; [12]
  Kd: 81.4 nM

## KTLDISSFY
HLA-A*03:01 [2]
  Kd: 19 nM
HLA-A*30:01; [9]
  Kd: 23.3 nM
HLA-A*11:01 [3]; [9]
  Kd: 6.46 nM
HLA-A*33:01
  Kd: ≥ 41900 nM
HLA-A*68:01
  Kd: 187 nM
HLA-A*31:01
  Kd: 88.3 nM

## KTSSGRMPV
HLA-A*30:01; [9]
  Kd: 1.96 nM

## KTTFSLHYA
HLA-A*30:01; source organism: Dengue virus 1 Singapore/S275/1990
  Kd: 14.5 nM

## KVRSNAALG
HLA-A*30:01; [13]
  Kd: 2.44 nM

## LAEAIFKLTY
HLA-A*01:01 [4]; [13]
  Kd: 1510 nM

## LAIPPTAGIL
HLA-B*08:01; [10]
  Kd: 4250 nM

## LARTAKVKN
HLA-A*02:01 [1]; [11]
  IC50: ≥ 213000 nM

## LLKATLLAV
HLA-B*08:01; [10]
  Kd: 12.7 nM
HLA-A*02:03; [10]
  Kd: 0.03 nM

## LLMLCLHHA
HLA-A*02:01 [1]; [11]
  IC50: 404 nM

## LLPPELSET
HLA-A*02:01 [1]; source organism: Human alphaherpesvirus 1 strain 17
  IC50: 4890 nM

## LLSKNTFYL
HLA-A*69:01
  Kd: 536 nM
HLA-A*02:01 [5]
  Kd: 15.5 nM

## LTEIASLPT
HLA-A*01:01 [4]; [12]
  Kd: 1470 nM

## MDLEKRHVL
HLA-B*08:01; [13]
  Kd: 68 nM

## MFLITENKI
HLA-A*23:01; source organism: Dengue virus 1 Nauru/West Pac/1974
  Kd: 162 nM

## MLKRVRNRV
HLA-B*08:01; [14]
  Kd: 18.5 nM
HLA-A*02:03; [14]
  Kd: 14.5 nM

## MQKCYFSYK
HLA-A*30:01; [9]
  Kd: 0.527 nM

## MRKTDWLPM
HLA-B*08:01; [14]
  Kd: 35 nM

## MVLLTMKEK
HLA-A*30:01; [10]
  Kd: 2780 nM
HLA-A*11:01 [3]; [10]
  Kd: 366 nM

## MWKQITNEL
HLA-A*23:01; [12]
  Kd: 144 nM

## NLTSTWVTY
HLA-A*01:01 [4]; [14]
  Kd: 1710 nM

## NPDIVIYQY
HLA-A*01:01 [6]
  Kd: ≥ 21000 nM

## NPGARNARL
HLA-B*08:01; [9]
  Kd: 6.19 nM

## NQNALVCGL
HLA-A*02:01 [1]; source organism: Sudan ebolavirus
  IC50: ≥ 122000 nM

## NSPVFNYNK
HLA-A*03:01 [7]
  Kd: ≥ 20000 nM
HLA-A*11:01 [8]
  Kd: 116 nM

## NYKERMVTF
HLA-A*24:02
  Kd: 19.4 nM
HLA-A*23:01; [12]
  Kd: 101 nM

## QIDNFSLGV
HLA-A*01:01 [4]; [13]
  Kd: 661 nM

## QVSDVDKLV
HLA-A*02:01 [1]; [11]
  IC50: ≥ 70700 nM
